Test results from patent US20120244144A1 (University of Texas, published 2012).

Experiments:
[1] = biological target: pertussis toxin holotoxin (Bordetella pertussis) (UniProt P04977); assay: cell-based or functional assay
[2] = biological target: pertussis toxin holotoxin (Bordetella pertussis) (UniProt P04977); assay: competition ELISA (Friguet), 5 nM antibody, soluble PT
[3] = biological target: pertussis toxin holotoxin (Bordetella pertussis), P04977; conditions: remark: other sources report otherwise

Molecule	In Vitro Neutralization (nM), minimum protective concentration, CHO clustering assay [1]	Kd [2]	Kd [3]
11E6 Fab	42 nM	9.3 nM	
11E6 scAb (scFv)	377 nM	19 nM	
1B7 F(ab)2	15 nM		
1B7 Fab (Fab) DIQMTQSPALMSASPGEKVTMTCSASSSVSFMYWYQQKPRSSPKPWIYLTSNLPSGVPARFSGSGSGTSYSLTISSMEAEDAATYYCQQWSSHPPTFGSGTKLEIKRGGGGSGGGGSGGGGSGGGGSEVQLQQSGSELVRPGASVKLSCKASGYKFTSYWMHWVKQRPGQGLEWIGNIFPGSGSTNYDEKFNSKATLTVDTSSNTAYMQLSSLTSEDSAVYYCTRWLSGAYFDYWGQGTTLTVSSASGA			2 nM
